The target in assay [1] is T1, hILT4-His-Avi tag (human, UniProt Q8N423 22-459).
T1 construct: also called monomeric human ILT4; extracellular region of hILT4 linked to a His-Avi tag
Nature of the assay: SPR Biacore T200, 37 C; antibody captured on protein A/G chip, monomeric hILT4 as analyte; kinetic fit. As for the experimental part:
(§1) The binding kinetics of the parent and germline reversion mutant anti-hILT4 antibodies (in the context of IgG1.3) were measured via Surface Plasmon Resonance (SPR) using a Biacore® T200 instrument. The assay temperature was 37° C. and the running buffer was PBS pH 7.4 supplemented with 0.05% Tween-20. Allanti-hILT4 antibodies were captured on a CM4 chip with pre-immobilized protein A/G (Pierce Thermo Scientific catalog number 21186). […] Monomeric human ILT4 was injected as analyte. […] The hILT4 used in this experiment, comprising the extracellular region of hILT4 linked to a His-Avi tag, consists of the following amino acid sequence: […]

Assay [2] has as its target T2, human ILT5 (human, UniProt O75022 24-631).
T2 construct: whole, on cells; also called hILT5; LILRB3
Nature of the assay: flow cytometry, 293T transfectants, antibody 20 µg/ml; stacked histograms, control: parental cells. On the procedure: (§2) Individual ILT family members were overexpressed in 293T cells. Each transfectant was stained with 20 μg/ml of anti-ILT4 antibodies followed by 1 μg/ml of anti-human IgG secondary mAb. Binding of the antibodies to each transfectant was measured by flow cytometry.
A general note: In flow cytometry, cells or beads pass a laser one at a time.

In assay [3] the target is T3, human LIR8 (human, UniProt O75023 24-590).
T3 construct: whole, on cells; also called hLIR8
Described as above. On the procedure: as §2

Assay [4] concerns the target T4, human LILRA5 (human, UniProt A6NI73 42-299).
T4 construct: whole, on cells; also called hLILRA5
The assay is described as above. As for the experimental part:
as §2

Assay [5] concerns the target T5, human LILRA2 (human, UniProt Q8N149 24-483).
T5 construct: whole, on cells; also called hLILRA2
The assay is described as above. As for the experimental part:
as §2

Assay [6] has as its target T6, human LILRA3 (human, UniProt Q8N6C8 24-439).
T6 construct: whole, on cells; also called hLILRA3; LIRA3
The description is as above. As for the experimental part: as §2

The target of assay [7] is T7, human ILT2 (human, UniProt Q8NHL6 24-650).
T7 construct: whole, on cells; also called hILT2
Described as above. As for the experimental part:
as §2

Assay [8] addresses T8, human LILRA1 (human, UniProt O75019 17-489).
T8 construct: whole, on cells; also called hLILRA1; LIRA1
The description is as above. On the procedure: as §2

Assay [9] deals with T9, human ILT3 (human, UniProt Q8NHJ6 22-448).
T9 construct: whole, on cells; also called hILT3
Described as above. As for the experimental part: as §2

For assay [10], the target named is T10, human LILRA6 (human, UniProt Q6PI73 24-481).
T10 construct: whole, on cells; also called hLILRA6
The assay is described as above. As for the experimental part:
as §2

Assay [11] addresses T11, human LILRA4 (human, UniProt P59901 24-499).
T11 construct: whole, on cells; also called hLILRA4
The description is as above. On the procedure: as §2

Assay [12] concerns the target T12, rhILT4-Fc (human, UniProt Q8N423-1 22-461).
T12 construct: also called rhILT4-Fc fusion protein with a murine Fc tail; not shown: murine Fc tail
Kind of assay: flow cytometry blocking assay: antibody titrated (12 points) with rhILT4-Fc fixed at 30 µg/ml; rhILT4-Fc bound to HLA-A overexpressing CHO cells read as % Positive; blocked ligand: HLA-A; the IC50 table has no unit, the concentration axis is in ug/mL.

Assay [13] concerns the target T1, hILT4-His-Avi tag. Nature of the assay: SPR Biacore T200, 37 C; antibody captured by anti-human Fc on CM4 chip, hILT4-His-Avi as analyte; 1:1 Langmuir fit. On the procedure:
The running buffer was 10 mM HEPES pH 7.4 supplemented with 0.05% Tween-20 and 1 g/L BSA. All anti-ILT4 antibodies were captured on a CM4 chip with pre-immobilized anti-human Fc capture antibody from Southern Biotech (catalog number 2081-01). […] All data were double-referenced and fitted to a 1:1 Langmuir model with mass transport using Biacore T200 Evaluation Software version 3.1.

Assay [14] has as its target T13, human ILT4 (hILT4) expressed on cells (human, UniProt Q8N423 22-597).
T13 construct: hILT4 on transfected CHO or 293T cells, or native on human monocytes and macrophages; also called LILRB2
Kind of assay: flow cytometry cross-blocking on hILT4 CHO cells: unlabelled antibody titrated from 40 µg/mL, then PE-2H2.IgG1.1f at 1.5 µg/mL; competitor: PE-2H2; GMFI (PE) falls from about 310 to about 45; the table calls the value EC50 and has no unit, the concentration axis is in µg/mL. The source says:
(§3) After washing, the samples were acquired on a FACSCanto™ cytometer (BD Bioscience, San Jose) and analyzed with Flowjo™ software (Tree Star, Inc, Ashland, Oreg.).

In assay [15] the target is T13, human ILT4 (hILT4) expressed on cells. Nature of the assay: flow cytometry cross-blocking on hILT4 CHO cells: unlabelled antibody titrated from 40 µg/mL, then PE-21D9.IgG1.1f at 1.5 µg/mL; competitor: PE-21D9; GMFI (PE) falls from about 595 to about 60; the table calls the value EC50 and has no unit, the concentration axis is in µg/mL.
Text: as §3

The target of assay [16] is T1, hILT4-His-Avi tag. Kind of assay: SPR Biacore T200, 37 C; antibody captured on protein A/G chip, monomeric hILT4 as analyte; steady state fit. As for the experimental part:
as §1
In general terms: Surface plasmon resonance follows binding to a sensor surface in real time, without labels.

Assay [17] addresses T13, human ILT4 (hILT4) expressed on cells. Nature of the assay: flow cytometry on hILT4-transfected CHO cells, PE anti-human IgG secondary, GMFI (PE); EC50 from the table below the graph; the table has no unit, the concentration axis is in ug/mL.
The target in assay [18] is T12, rhILT4-Fc. Nature of the assay: flow cytometry blocking assay: antibody titrated (12 points) with rhILT4-Fc fixed at 30 µg/ml; rhILT4-Fc bound to HLA-B overexpressing CHO cells read as % Positive; blocked ligand: HLA-B; the IC50 table has no unit, the concentration axis is in ug/mL.
Assay [19] concerns the target T13, human ILT4 (hILT4) expressed on cells. Nature of the assay: flow cytometry on human monocytes of a healthy donor, directly labelled antibody, GMFI; EC50 from the table below the graph; the table has no unit, the concentration axis is in ug/mL. The source says: In FIG. 18B, monocytes selected from a normal healthy donor's peripheral blood were stained with individual anti-ILT4 antibodies conjugated to […].

The target of assay [20] is T1, hILT4-His-Avi tag. Nature of the assay: SPR ProteOn XPR36, 37 C; antibody amine-coupled to GLC chip, ILT4 ECD-His-Avi as analyte; kinetic titration. On the procedure: The antibody was amine-coupled to a GLC sensor chip in a Proteon XPR36 instrument (BioRad). […] All data were double-referenced, exported, and analyzed with BIAevaluation Software 4.1.1 using the kinetic titration model described by Karlsson et al (Karlsson et al. (2005) Analytical Biochem. 349:136). The running buffer consisted of 10 mM HEPES pH 7.4, 150 mM NaCl and 0.05% Tween-20. The assay temperature was 37° C.

Assay [21] addresses T4, human LILRA5. Kind of assay: antibody titration flow cytometry binding assay on transfected cells, nonlinear regression.
Assay [22] has as its target T13, human ILT4 (hILT4) expressed on cells. Described as above.

“And” between values parts separate entries of the source, which are not always exact repeats. Equal entries are not always repeated.

For orientation: Kd means the concentration at which binding is half-saturated. Higher therefore signals lower affinity. In general, koff refers to the rate constant with which the complex falls apart. A lower koff goes with slow dissociation. A word on the kon: it is the rate constant with which the complex forms. Higher therefore signals fast association. The term IC50 denotes the concentration needed to halve the response being measured. A low value points to greater potency in that assay. A word on the EC50: it is the midpoint of the concentration-response curve.

T13 sequence (Q8N423 other isoform, or with tags, fused parts or gaps): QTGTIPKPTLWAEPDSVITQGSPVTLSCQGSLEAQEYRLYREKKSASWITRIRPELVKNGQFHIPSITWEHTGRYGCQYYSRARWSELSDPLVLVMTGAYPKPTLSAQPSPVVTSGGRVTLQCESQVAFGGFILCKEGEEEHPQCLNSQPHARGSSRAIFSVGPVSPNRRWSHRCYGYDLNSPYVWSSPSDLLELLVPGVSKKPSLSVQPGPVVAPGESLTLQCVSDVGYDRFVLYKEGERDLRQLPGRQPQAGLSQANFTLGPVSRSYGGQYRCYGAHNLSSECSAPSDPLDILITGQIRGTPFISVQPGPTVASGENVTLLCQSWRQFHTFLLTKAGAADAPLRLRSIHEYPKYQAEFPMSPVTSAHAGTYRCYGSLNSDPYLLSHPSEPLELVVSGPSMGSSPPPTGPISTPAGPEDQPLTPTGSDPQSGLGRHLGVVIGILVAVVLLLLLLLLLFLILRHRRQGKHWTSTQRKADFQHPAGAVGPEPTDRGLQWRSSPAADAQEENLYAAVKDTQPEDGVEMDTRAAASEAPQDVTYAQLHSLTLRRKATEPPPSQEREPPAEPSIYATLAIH
T1 sequence (Q8N423 other isoform, or with tags, fused parts or gaps): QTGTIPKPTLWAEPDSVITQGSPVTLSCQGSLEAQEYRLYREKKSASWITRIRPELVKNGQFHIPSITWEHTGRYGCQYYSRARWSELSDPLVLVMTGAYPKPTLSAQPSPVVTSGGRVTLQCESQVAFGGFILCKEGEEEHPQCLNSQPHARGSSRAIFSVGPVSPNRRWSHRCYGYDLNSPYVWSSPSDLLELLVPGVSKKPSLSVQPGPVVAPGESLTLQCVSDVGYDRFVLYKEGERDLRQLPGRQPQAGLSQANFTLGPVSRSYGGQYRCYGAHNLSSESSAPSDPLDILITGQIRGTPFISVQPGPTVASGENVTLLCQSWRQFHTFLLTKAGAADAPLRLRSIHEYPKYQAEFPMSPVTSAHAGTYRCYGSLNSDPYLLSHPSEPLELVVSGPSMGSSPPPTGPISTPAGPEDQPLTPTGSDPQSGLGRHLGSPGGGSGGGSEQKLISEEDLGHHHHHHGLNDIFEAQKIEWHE
T7 sequence (Q8NHL6 24-650): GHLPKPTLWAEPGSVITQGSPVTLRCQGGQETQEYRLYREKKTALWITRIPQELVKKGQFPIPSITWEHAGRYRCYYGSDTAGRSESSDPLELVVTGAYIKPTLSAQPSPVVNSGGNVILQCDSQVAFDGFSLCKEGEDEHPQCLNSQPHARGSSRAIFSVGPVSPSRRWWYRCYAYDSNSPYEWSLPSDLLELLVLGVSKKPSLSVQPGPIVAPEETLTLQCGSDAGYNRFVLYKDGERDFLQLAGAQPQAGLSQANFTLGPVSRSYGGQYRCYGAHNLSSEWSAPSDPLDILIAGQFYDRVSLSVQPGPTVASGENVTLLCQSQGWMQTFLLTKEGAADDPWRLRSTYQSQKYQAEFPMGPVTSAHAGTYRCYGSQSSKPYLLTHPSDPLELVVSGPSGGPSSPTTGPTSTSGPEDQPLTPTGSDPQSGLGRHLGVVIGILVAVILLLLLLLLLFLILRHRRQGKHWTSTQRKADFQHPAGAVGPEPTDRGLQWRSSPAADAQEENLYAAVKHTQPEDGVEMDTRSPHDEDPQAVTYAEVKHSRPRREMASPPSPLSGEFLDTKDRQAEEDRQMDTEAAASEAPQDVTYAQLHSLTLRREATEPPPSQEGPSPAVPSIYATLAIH
T12 sequence (Q8N423 other isoform, or with tags, fused parts or gaps): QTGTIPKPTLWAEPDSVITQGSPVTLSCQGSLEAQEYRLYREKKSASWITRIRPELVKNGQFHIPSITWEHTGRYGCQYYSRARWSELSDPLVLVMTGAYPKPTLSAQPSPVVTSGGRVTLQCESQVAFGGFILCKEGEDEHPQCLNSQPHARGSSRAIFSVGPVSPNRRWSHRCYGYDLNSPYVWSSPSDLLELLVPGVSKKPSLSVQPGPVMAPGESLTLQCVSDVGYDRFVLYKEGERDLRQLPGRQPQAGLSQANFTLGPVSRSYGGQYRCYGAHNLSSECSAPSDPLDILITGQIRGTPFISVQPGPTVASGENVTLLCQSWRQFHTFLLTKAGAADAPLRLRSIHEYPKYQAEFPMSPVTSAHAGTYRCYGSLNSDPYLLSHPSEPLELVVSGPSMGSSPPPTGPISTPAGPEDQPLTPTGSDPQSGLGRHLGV
T4 sequence (A6NI73 42-299): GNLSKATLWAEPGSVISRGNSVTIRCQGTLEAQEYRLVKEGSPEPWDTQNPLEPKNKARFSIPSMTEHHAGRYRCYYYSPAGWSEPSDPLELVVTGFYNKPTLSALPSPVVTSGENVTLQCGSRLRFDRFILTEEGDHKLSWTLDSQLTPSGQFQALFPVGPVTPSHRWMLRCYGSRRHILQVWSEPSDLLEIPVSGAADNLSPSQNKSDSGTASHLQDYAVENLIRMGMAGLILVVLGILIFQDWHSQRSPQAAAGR
T5 sequence (Q8N149 24-483): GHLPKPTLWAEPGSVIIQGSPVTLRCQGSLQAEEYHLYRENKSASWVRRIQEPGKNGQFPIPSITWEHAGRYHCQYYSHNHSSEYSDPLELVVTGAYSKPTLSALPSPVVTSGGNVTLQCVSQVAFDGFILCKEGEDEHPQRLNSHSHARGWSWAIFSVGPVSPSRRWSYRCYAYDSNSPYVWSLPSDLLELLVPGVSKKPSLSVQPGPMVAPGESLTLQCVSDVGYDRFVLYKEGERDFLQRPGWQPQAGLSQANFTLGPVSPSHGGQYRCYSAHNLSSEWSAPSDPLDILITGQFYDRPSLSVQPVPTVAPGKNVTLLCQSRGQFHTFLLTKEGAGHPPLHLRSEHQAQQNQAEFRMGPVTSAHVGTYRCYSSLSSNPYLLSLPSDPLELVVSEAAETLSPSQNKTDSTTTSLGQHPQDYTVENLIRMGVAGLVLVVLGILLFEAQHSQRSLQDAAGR
T6 sequence (Q8N6C8 24-439): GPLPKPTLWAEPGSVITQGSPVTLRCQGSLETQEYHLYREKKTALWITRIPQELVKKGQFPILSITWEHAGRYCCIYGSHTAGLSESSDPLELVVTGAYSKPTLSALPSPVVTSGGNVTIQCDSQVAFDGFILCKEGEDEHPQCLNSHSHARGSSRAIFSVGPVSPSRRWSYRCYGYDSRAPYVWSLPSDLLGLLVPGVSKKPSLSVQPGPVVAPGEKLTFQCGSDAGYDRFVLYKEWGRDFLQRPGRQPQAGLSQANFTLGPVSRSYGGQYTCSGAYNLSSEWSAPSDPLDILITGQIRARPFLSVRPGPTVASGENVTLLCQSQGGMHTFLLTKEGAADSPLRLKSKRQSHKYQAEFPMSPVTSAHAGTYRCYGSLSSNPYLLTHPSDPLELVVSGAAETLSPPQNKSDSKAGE
T3 sequence (O75023 24-590): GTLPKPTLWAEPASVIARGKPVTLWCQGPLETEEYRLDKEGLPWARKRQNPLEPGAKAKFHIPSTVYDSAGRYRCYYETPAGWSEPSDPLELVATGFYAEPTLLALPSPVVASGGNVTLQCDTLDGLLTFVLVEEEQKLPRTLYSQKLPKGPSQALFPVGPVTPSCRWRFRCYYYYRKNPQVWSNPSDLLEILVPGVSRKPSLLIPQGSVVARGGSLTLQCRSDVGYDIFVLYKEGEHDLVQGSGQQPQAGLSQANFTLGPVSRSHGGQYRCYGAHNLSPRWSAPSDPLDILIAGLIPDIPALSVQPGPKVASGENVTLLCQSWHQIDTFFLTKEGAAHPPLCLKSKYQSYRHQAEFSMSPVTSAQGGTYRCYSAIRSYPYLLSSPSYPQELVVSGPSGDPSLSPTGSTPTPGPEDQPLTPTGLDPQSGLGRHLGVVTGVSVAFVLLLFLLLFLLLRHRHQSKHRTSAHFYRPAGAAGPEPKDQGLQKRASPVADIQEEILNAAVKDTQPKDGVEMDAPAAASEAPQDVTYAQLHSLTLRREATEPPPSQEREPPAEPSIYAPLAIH
T10 sequence (Q6PI73 24-481): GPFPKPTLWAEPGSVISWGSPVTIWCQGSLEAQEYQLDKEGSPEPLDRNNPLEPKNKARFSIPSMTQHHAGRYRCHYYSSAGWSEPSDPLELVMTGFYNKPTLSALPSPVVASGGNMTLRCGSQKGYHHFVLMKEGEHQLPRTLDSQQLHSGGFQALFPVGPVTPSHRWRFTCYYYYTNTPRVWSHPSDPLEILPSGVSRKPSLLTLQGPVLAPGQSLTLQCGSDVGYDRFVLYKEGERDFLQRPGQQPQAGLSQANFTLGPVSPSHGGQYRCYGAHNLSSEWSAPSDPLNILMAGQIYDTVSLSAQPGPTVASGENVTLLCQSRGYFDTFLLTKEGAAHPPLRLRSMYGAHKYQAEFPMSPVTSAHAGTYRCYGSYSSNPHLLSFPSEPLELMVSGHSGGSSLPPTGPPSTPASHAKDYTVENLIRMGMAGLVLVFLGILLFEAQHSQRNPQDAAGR
T8 sequence (O75019 17-489): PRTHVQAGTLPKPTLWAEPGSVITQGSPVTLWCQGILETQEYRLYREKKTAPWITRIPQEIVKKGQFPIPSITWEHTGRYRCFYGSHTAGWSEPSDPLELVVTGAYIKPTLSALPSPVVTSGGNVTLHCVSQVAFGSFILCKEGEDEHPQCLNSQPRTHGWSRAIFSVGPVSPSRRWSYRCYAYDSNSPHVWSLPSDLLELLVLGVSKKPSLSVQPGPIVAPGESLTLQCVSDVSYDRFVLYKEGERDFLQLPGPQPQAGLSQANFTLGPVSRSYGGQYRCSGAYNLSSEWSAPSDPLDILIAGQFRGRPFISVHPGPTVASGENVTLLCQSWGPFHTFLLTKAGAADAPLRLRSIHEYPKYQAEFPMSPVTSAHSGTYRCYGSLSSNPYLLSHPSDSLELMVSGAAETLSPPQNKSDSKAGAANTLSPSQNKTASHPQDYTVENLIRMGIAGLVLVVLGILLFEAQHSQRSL

B1: 10F10.IgG1.3 (antibody, V domains shown)
VH: QVQLVESGGGVVQPGRSLRLSCAASGFTFSSYAMHWVRQAPGKGLEWVAIISYDEYNKYYADSVKGRFTISRDNSKNTLYLQMNSLRAEDTAVYYCAREWVGIRYWGQGTLVTVSS
VL: AIQLTQSPSSLSASVGDRVTITCRASQGISSALAWFQQKPGKAPKLLIYDASSLESGVPSRFTGSGSGTDFTLTISSLQPEDFATYYCQQFNSYPITFGQGTRLEIKR
notes: Fully human antibody, IgG1.3 heavy chain constant region (L234A, L235E, G237A), kappa light chain; also called 10F10 WT; ILT4.10.IgG1.3
Regarding B1, the Kd in assay [1] is 14 nM and 15 nM; in assay [13], 22 nM; in assay [16], 19 nM and 18 nM. In addition, the off-rate constant (koff) in assay [1] was 0.023 s⁻¹ and 0.02 s⁻¹; in [13] it was 0.026 s⁻¹. In addition, the kon in assay [1] is 1.6e+06 M⁻¹ s⁻¹ and 1.3e+06 M⁻¹ s⁻¹; in assay [13], 1.2e+06 M⁻¹ s⁻¹. Further, the binding result in assay [2], in assay [3], in assay [4], in assay [5], in assay [6] and in [7] was “no binding (tested: 20 µg/ml)” each time. Further, the binding result in assay [8], in assay [9], in assay [10] and in assay [11] was “no binding (tested: 20 µg/ml)” throughout. Also, the results for the half-inhibitory concentration (IC50) in assay [12] and in assay [18] were 3.6 µg/mL and 1.55 µg/mL, respectively. In assay [13], this molecule yielded an app. act. of 100%. Also, the EC50 was found to be 0.0279 µg/mL in assay [14], 0.0492 µg/mL in [15], 0.015 µg/mL in [17] and 0.131 µg/mL in assay [19].

B2: 21D9.e.IgG1.3 (antibody, V domains shown)
VH: EVQLLESGGGLVQPGGSLRLSCAASGFTFSNYAMNWVRQAPGKGLEWVSVISVSGGSTYYADSVKGRFTISRDNSKNTLYLQMNSLRAEDTAVYYCAKDYYYDSGSYYDSFFDYWGQGTLVTVSS
VL: not shown
notes: Germline reversion mutant of 21D9 with all four VH reversions; light chain of 21D9; IgG1.3; also called ILT4.8.IgG1.3; ILT4.8
On to B2, for which the figures for the Kd in assay [1], in [20] and in assay [13] were 0.39 nM, 0.33 nM and 0.58 nM, respectively. The figures for the app. act. in assay [1] and in assay [13] were 93% and 94%, respectively. Also, the binding result in assay [2], in assay [3], in [5], in assay [6], in assay [7] and in [8] was “no binding (tested: 20 µg/ml)” throughout. Further, the binding result in assay [9], in [10] and in [11] was “no binding (tested: 20 µg/ml)” in each case. For the same molecule, the EC50 in assay [21] is approximately 313 µg/mL; in assay [22] it was 0.039 µg/mL; in [17], 0.00416 µg/mL; in assay [19], 0.0341 µg/mL.

These data come from US20200079848A1 (Five Prime, published 2020).
